The text below walks through data of paper PMC6797848, “A TBR1-K228E Mutation Induces Tbr1 Upregulation, Altered Cortical Distribution of Interneurons, Increased Inhibitory Synaptic Transmission, and Autistic-Like Behavioral Deficits in Mice”.

Numbering of substitutions follows the chain as printed.

Common to all, as to settings: protein: recombinant; tags: N-terminal His6 removed by thrombin (pET28a, NdeI/HindIII); label: 5'-biotin on strand 1
The target in data set [1] is T1, TBR1 T-box domain WT (hTBR1DBD) (human, UniProt Q16650 200-400).
T1 sequence: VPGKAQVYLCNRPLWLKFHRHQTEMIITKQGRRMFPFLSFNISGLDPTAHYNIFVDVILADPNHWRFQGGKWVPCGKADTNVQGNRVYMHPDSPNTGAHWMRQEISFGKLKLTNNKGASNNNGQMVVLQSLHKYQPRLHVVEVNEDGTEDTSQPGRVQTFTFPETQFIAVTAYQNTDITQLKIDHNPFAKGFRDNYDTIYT
The experiment in a line: BLI; protein 2.5-10 uM; Kd only plotted in figure; BLI (BLITZ, streptavidin sensor): kinetic buffer 20 mM HEPES pH 7.5, 100 mM NaCl, 25 C (stated for sensor hydration/equilibration); protein stock in 20 mM HEPES pH 7.5, 150 mM NaCl, 5 mM MgCl2. (In BLI a coated tip is dipped into the sample, and binding shifts an interference pattern.)

A further data set addresses T2, TBR1 T-box domain K228E (human, UniProt Q16650 200-400, K228E).
T2 sequence: T1 sequence with K29E
Briefly: BLI; n=3; Kd only plotted in figure; BLI (BLITZ, streptavidin sensor): kinetic buffer 20 mM HEPES pH 7.5, 100 mM NaCl, 25 C (stated for sensor hydration/equilibration); protein stock in 20 mM HEPES pH 7.5, 150 mM NaCl, 5 mM MgCl2.

In a further data set the target is T3, TBR1 T-box domain N374H (human, UniProt Q16650 200-400, N374H).
T3 sequence: T1 sequence with N175H
The experiment in a line: BLI; n=3; stated as no effect on affinity; Kd only plotted in figure; BLI (BLITZ, streptavidin sensor): kinetic buffer 20 mM HEPES pH 7.5, 100 mM NaCl, 25 C (stated for sensor hydration/equilibration); protein stock in 20 mM HEPES pH 7.5, 150 mM NaCl, 5 mM MgCl2.

B1: Grin2b-promoter probe (dsDNA)
DNA 1: TATATAGGTTGAGTGGCACGTTCCTGGGTGTGAGACC
DNA 2: GGTCTCACACCCAGGAACGTGCCACTCAA
On to B1, for which the binding result in data set [1] is listed as “binds”. The binding signal in the data set with TBR1 T-box domain K228E was ~3 fold increase in Kd vs WT; with TBR1 T-box domain N374H, ~1 fold Kd vs WT.
